First the molecules themselves.
B1: SlFLS promoter E-box probe 3 (dsDNA)
DNA 1: TAAAAAGCTGTTTATCAGCACTTGTTTGCCAAACACATCAAC
DNA 2: GTTGATGTGTTTGGCAAACAAGTGCTGATAAACAGCTTTTTA
B2: SlCHS1 promoter E-box probe 2 (dsDNA)
DNA 1: CTAAAAAAGTTGCTCAAACACGTGAAGACTAGCTACCGCCTA
DNA 2: TAGGCGGTAGCTAGTCTTCACGTGTTTGAGCAACTTTTTTAG
B3: SlCHS1 promoter E-box probe 1 (dsDNA)
DNA 1: AAGCCATTTTCTCTTCTTCACTTGCTAAAATTTGTATAATAT
DNA 2: ATATTATACAAATTTTAGCAAGTGAAGAAGAGAAAATGGCTT
B4: SlFLS promoter E-box probe 2 (dsDNA)
DNA 1: ATTATACATACAAAATATCAATTGCAAGCTCTGATTTTATGT
DNA 2: ACATAAAATCAGAGCTTGCAATTGATATTTTGTATGTATAAT
B5: SlCHS1 promoter E-box probe 3 (dsDNA)
DNA 1: TTTATACAGTTCTCTGCCCAAGTGTCTTTCTCTTTCTTGTTT
DNA 2: AAACAAGAAAGAGAAAGACACTTGGGCAGAGAACTGTATAAA

The data set has as its target SlbHLH95 (GST fusion) (Solanum lycopersicum, UniProt A0A3Q7IJR5 1-380). Kind of data set: EMSA. For orientation: A gel shift assay detects complexes by their altered migration in electrophoresis.
With B1, the binding result is “no binding”.
In the case of B2 it was “no binding”; in that of B3, “no binding”.
With B4, the binding result is listed as “binds”.
Turning to B5, the binding result is given as “no binding”.

Values taken from PMC12120882.
